{
  "source": "paper PMC5647379",
  "key": {"[1]": {"molecular_target": "dansylated calmodulin (D-CaM, 5-(dimethylamino)naphtalene-1-sulfonyl-calmodulin) (rat) (UniProt P0DP29)", "test": "other fluorescence titration; D-CaM 12.5 nM in the cuvette, increasing concentrations of GST-fusion protein; no Ca2+ (EGTA 10 mM); Tris-HCl 25 mM pH 7.4, KCl 120 mM, NaCl 5 mM, MgCl2 2 mM; 25 °C; apparent affinity (EC50 of a Hill fit to the fluorescence enhancement)"}, "[2]": {"molecular_target": "dansylated calmodulin (D-CaM, 5-(dimethylamino)naphtalene-1-sulfonyl-calmodulin) (rat) (UniProt P0DP29)", "test": "other fluorescence titration; as a2 but with an excess of free Ca2+ (3.9 µM; 9.63 mM Ca2+ added to the Fluorescence buffer); apparent affinity (EC50)"}, "[3]": {"molecular_target": "dansylated calmodulin (D-CaM, 5-(dimethylamino)naphtalene-1-sulfonyl-calmodulin) (rat) (UniProt P0DP29)", "test": "other fluorescence titration; D-CaM 12.5 nM in the cuvette, increasing concentrations of GST-fusion protein; no Ca2+ (EGTA 10 mM); Tris-HCl 25 mM pH 7.4, KCl 120 mM, NaCl 5 mM, MgCl2 2 mM; 25 °C; apparent affinity (EC50 of a Hill fit to the fluorescence enhancement)", "remark": "listed apart in the source"}, "[4]": {"molecular_target": "Fluorescent dansylated CaM (D-CaM, 5-(dimethylamino)naphtalene-1-sulfonyl-calmodulin) (rat) (UniProt P0DP29)", "test": "other fluorescence titration; increasing GST-fusion protein added to D-CaM (12.5 nM) in the cuvette; dansyl fluorescence enhancement, Hill fit, apparent affinity (EC50); 25 °C; Fluorescence buffer with 9.63 mM Ca2+ added (3.9 µM free Ca2+)"}, "[5]": {"molecular_target": "mTurquoise2-Kv7.2-ABCD (residues 310-653) (human)", "test": "FRET or BRET; equimolar mixtures (500 nM or 2.5 µM each) of purified CFP-ABCD/CaM (donor) and YFP-ABCD/CaM (acceptor) complexes; FRET index followed over time; KCl 120 mM, Hepes 50 mM, NaCl 5 mM, EGTA 5 mM, with or without Ca2+"}, "[6]": {"molecular_target": "dansylated calmodulin (D-CaM, 5-(dimethylamino)naphtalene-1-sulfonyl-calmodulin) (rat) (UniProt P0DP29)", "test": "dansyl-CaM fluorescence time course; D-CaM 12.5 nM in a stirred cuvette, emission at 500 nm against time; wt protein (400 nM) added, or one mutant (400 nM) and two minutes later the other mutant (400 nM); also 50 and 100 nM; Fluorescence buffer with or without Ca2+; 25 °C and 37 °C"}, "[7]": {"molecular_target": "Fluorescent dansylated CaM (D-CaM, 5-(dimethylamino)naphtalene-1-sulfonyl-calmodulin) (rat) (UniProt P0DP29)", "test": "other fluorescence titration; increasing GST-fusion protein added to D-CaM (12.5 nM) in the cuvette; dansyl fluorescence enhancement, Hill fit, apparent affinity (EC50); 25 °C; Tris-HCl 25 mM pH 7.4, KCl 120 mM, NaCl 5 mM, MgCl2 2 mM, EGTA 10 mM; without Ca2+"}},
  "data": [
    {"substance": "ABCD#-L609R (equal mixture of helix A and helix B mutants of ABCD carrying L609R)", "values": [
      {"measurement": "EC50", "setting": "[1]", "result": 120, "unit": "nM"}
    ]},
    {"substance": "GST-Kv7.2 ABCD (helices ABCD fused to GST) (domain or fragment)", "values": [
      {"measurement": "EC50", "setting": "[1]", "result": 9.1, "unit": "nM"},
      {"measurement": "EC50", "setting": "[2]", "result": 15.1, "unit": "nM"},
      {"measurement": "EC50", "setting": "[3]", "result": 9.2, "unit": "nM"}
    ]},
    {"substance": "ABCD# (equimolar mixture of GST-ABCD-S511D and GST-ABCD-A343D of Kv7.2)", "values": [
      {"measurement": "EC50", "setting": "[4]", "result": 78.5, "unit": "nM"}
    ]},
    {"substance": "mCitrine-Kv7.2-ABCD (residues 310-653) (domain or fragment)", "values": [
      {"measurement": "time to reach half maximal FRET (2.5 µM donor and acceptor)", "setting": "[5]", "result": 6.9, "unit": "min"},
      {"measurement": "time to reach the half maximal FRET index (500 nM mixture)", "setting": "[5]", "result": 12.2, "unit": "min"}
    ]},
    {"substance": "ABCD# (equimolar mixture of ABCD-A343D and ABCD-S511D)", "values": [
      {"measurement": "EC50", "setting": "[1]", "result": 45.5, "unit": "nM"},
      {"measurement": "half-time in the trans-binding assay (400 nM)", "setting": "[6]", "result": 6.5, "unit": "min"},
      {"measurement": "time to reach the half-maximal D-CaM fluorescence signal (400 nM, 25 °C)", "setting": "[6]", "result": 12, "unit": "min"},
      {"measurement": "time to reach the half-maximal D-CaM fluorescence signal (400 nM, 37 °C)", "setting": "[6]", "result": 9.2, "unit": "min"}
    ]},
    {"substance": "ABCD#-L609R (equimolar mixture of GST-ABCD-S511D-L609R and GST-ABCD-A343D-L609R of Kv7.2)", "values": [
      {"measurement": "EC50", "setting": "[4]", "result": 173, "unit": "nM"},
      {"measurement": "EC50", "setting": "[7]", "result": 119, "unit": "nM"}
    ]}
  ]
}
